Target: HER2 expressed on the surface of breast carcinoma cells (BT-474; SK-BR-3) (human) (UniProt P04626)
Test: cell-based or functional assay

ADCC on SK-BR-3 cells with human PBMCs (specific release), IC50: 0.067 nM
Substance: HER-con4(H) (…® with the 2xcon4 MRD fused to the heavy chain) (bispecific antibody)

Source: patent publication US20140127200A1
